We go through six molecules from patent publication US20260200999A1, “SYNTHETIC TRANSCRIPTION FACTORS” (ETH ZURICH, priority 2022, published 2026).

For orientation: EC50 means the concentration needed to bring the measured effect to its halfway point.

For data set [1] the following is noted: upon ingestion; cited from earlier work.
Data set [2] has as its target T1, FKBP (SEQ ID NO: 142) and FRBT2098L (SEQ ID NO: 140) heterodimerization (Homo sapiens, UniProt P42345+P62942+Q04206, T2098L).
T1 construct: expressed in transfected cells; host or cells: HEK293
The experiment in a line: A/C heterodimerizer-inducible HumTAP gene expression system in HEK293 cells. It counts as cell-based. The source says:
One well-characterized small-molecule based dimerization system is based on the rapamycin analog A/C (C16-(S)-7-methylindolerapamycin) that induces heterodimerization between the human proteins FK506-binding protein 12 (FKBP; SEQ ID NO: 142) and the FKBP12-rapamycin binding domain (FRB) mutant FRBT2098L (SEQ ID NO: 140), [31]. To achieve A/C heterodimerizer-inducible gene expression, the inventors fused FKBP (SEQ ID NO: 142) to the N-terminus of MTERF158-399 (SEQ ID NO: 1) and FRB (SEQ ID NO: 140) to the C-terminus of different transactivation domains (FIG. 10A). […] In accordance with the results described above, chimeric transactivation domains mediated higher maximal output expression levels than RelA430-551.
The inventors reasoned that in the present system, dimerization might be hindered by either FRB's or FKBP's fusion partner and investigated whether the addition of linkers between the protein domains might impact the EC50 value (FIG. 10 D). A combination of the cMyc nuclear localization signal (NLS) (SEQ ID NO: 122) linking MTERF158-399 and FKBP, and the rigid linker AP6 (SEQ ID NO: 120) linking FRB and RelA430-551 led to a reduction in EC50 to ~60 nM while also increasing maximal output ~3-fold over the variant without linkers and RelA430-551 as TAD (FIG. 10 D).

The target of data set [3] is FRB and FKBP dimerization (Homo sapiens, UniProt P42345+P62942, T2098L). To be noted: previously reported A/C-inducible FRB and FKBP systems [31], [33]; cited from earlier work.
Chain of FRB and FKBP dimerization (P62942 whole entry): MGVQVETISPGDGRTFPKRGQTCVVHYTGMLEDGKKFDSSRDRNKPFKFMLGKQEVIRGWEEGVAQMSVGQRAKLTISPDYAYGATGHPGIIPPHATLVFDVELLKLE
Chain of FRB and FKBP dimerization (P42345 2012-2144 T2098L): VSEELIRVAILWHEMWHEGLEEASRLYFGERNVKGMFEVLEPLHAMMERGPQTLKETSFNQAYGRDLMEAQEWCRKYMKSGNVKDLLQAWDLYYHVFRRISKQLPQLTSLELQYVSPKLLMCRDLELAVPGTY
Data set [4] deals with T2, MTERF1 58-399::FoxoTAD-LMSTEN-TA1 (Homo sapiens, UniProt Q99551 SEQ:1-342).
T2 chain: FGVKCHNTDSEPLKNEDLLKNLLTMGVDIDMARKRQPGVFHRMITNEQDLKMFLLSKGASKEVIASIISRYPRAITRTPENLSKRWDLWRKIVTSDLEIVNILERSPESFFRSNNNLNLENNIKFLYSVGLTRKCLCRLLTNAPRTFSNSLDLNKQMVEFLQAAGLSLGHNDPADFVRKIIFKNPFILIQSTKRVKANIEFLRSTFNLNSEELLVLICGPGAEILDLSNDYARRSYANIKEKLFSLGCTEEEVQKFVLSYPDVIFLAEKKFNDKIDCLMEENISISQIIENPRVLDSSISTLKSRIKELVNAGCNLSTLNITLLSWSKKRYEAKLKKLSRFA
The data set is described as follows: cell_activity; HEK293 reporter. To be noted: tags: TAD fusion. An excerpt:
(§1) Upon co-transfection of HEK293 cells with plasmids encoding pEF1a-driven expression of the fusion HumTAPs, a Response Element-driven mCerulean reporter protein, and a mCherry transfection control, all peptides derived from RelA except TA1 mediated high levels of reporter gene expression. Including a larger fraction of the RelA protein led to higher reporter expression. Conversely, the core transactivation domains TA1, WW, ZNF473 KRAB, and NucRecCoAct mediated little to no reporter expression.
(§2) Similarly, two copies of FoxoTAD (SEQ ID NO: 33) mediated 20-fold more mCerulean expression than just one FoxoTAD copy and ~2-fold more than the benchmark RelA₄₃₀₋₅₅₁ TAD. This effect was not as pronounced for the LMSTEN domain for which two copies (SEQ ID NO: 196) mediated ~2.7-fold more reporter expression than one copy. Fusing FoxoTAD with LMSTEN (SEQ ID NO: 54), LMSTEN with TA1 (SEQ ID NO: 56), or FoxoTAD with TA1 (SEQ ID NO: 58) yields TADs that are at the same time smaller and stronger than the benchmark RelA₄₃₀₋₅₅₁ TAD. A chimeric TAD consisting of FoxoTAD, LMSTEN, and TA1 (SEQ ID NO: 52) yields 3.7 times the amount of reporter gene expression than RelA₄₃₀₋₅₅₁ (FIG. 9 C). It is therefore possible to engineer both stronger and smaller transactivation domains than the commonly used RelA₄₃₀₋₅₅₁ without incorporating protein domains of non-human origin. […]

In the next data set the target is T3, MTERF1 58-399::2xFoxoTAD (Homo sapiens, UniProt Q99551 SEQ:1-342).
T3 chain: T2 chain
The experiment in a line: cell_activity; HEK293 reporter. To be noted: tags: TAD fusion.
Text: as §1, §2

The target in the next data set is T4, MTERF1 58-399::2xTA1 (Homo sapiens, UniProt Q99551 SEQ:1-342).
T4 chain: T2 chain
The data set is described as follows: cell_activity; HEK293 reporter. To be noted: tags: TAD fusion.

The target in the next data set is T5, MTERF1 58-399::LMSTEN (Homo sapiens, UniProt Q99551 SEQ:1-342).
T5 chain: T2 chain
The experiment in a line: cell_activity; HEK293 reporter; TAD effect. To be noted: tags: TAD fusion.

A further data set concerns the target T6, MTERF1 58-399::FoxoTAD (Homo sapiens, UniProt Q99551 SEQ:1-342).
T6 chain: T2 chain
The experiment in a line: cell_activity; HEK293 reporter; TAD effect. To be noted: tags: TAD fusion.

Data set [5] deals with Response Element-driven (SEQ ID NO: 48) mCerulean fluorescent reporter. The experiment in a line: Orthogonality: MTF-driven reporter with or without WT MTERF1 co-expression. Conditions: HEK293; MTF construct plus reporter SEQ ID NO: 48, with or without EF1a-driven WT MTERF1. It is filed as cell-based, human. The source says:
To assess the orthogonality of the host towards the Response Element-driven Gene of Interest (Gol), the inventors transfected a HumTAP representative MTF (SEQ ID NO: 100) with a Response Element-driven (SEQ ID NO: 48) mCerulean fluorescent reporter, with and without the construct encoding a wild-type MTERF1 to assess whether it might interfere with the induction of the Gol by MTF (FIG. 7B).

Data set [6] relates to endogenous human genes in HEK293 cells. The data set is described as follows: RNA-Seq differential gene expression analysis of transfected HEK293 cells versus junk plasmid (edgeR). It counts as cell-based. Conditions: transfected HEK293 cells vs "junk" plasmid, FDR<0.5, fold-change of at least 2. As to the method:
The inventors therefore used RNA-Seq to investigate whether MTF (SEQ ID NO: 100) activates the expression of endogenous human genes. The inventors also transfected WT MTERF1 (SEQ ID NO: 108) to compare the gene-regulatory effects of MTERF1 to those of MTF. Differential gene expression analysis was performed against cells that were transfected with a “junk” plasmid using the edgeR software package for R [24]. […] Future investigations will assess the dose-dependency of differentially expressed (DE) genes on MTF amount and may help clarify the origin of DE genes.

Data set [7] deals with T7, MTF (MTERF1 58-399::RelA 430-551) (Homo sapiens, UniProt Q99551 SEQ:2-343).
T7 chain: T2 chain
The data set is described as follows: cell_activity; mCitrine, HEK293; none without MTF. To be noted: tags: RelA 430-551 TAD fusion. An excerpt:
The inventors next sought to facilitate potential future applications and created a collection of promoters with different strengths to match potential future applications' requirements. Randomly picking 20 variants yielded mostly weak promoters. To maximize diversity in size and strength, the inventors chose 19 further promoters based on their high activity score or small genetic size. Altogether, the inventors created a promoter collection spanning a wide range of sizes and strengths (FIG. 15A, B). After co-transfecting each variant either with or without a MTF plasmid amount corresponding to the EC90, and a mCherry transfection control plasmid into HEK293 cells, relative mCitrine levels were measured using flow cytometry. […]

“Also recorded” adds a separate entry of the source.

T1 sequence (P62942 with tags, fused parts or gaps, stated change not applied): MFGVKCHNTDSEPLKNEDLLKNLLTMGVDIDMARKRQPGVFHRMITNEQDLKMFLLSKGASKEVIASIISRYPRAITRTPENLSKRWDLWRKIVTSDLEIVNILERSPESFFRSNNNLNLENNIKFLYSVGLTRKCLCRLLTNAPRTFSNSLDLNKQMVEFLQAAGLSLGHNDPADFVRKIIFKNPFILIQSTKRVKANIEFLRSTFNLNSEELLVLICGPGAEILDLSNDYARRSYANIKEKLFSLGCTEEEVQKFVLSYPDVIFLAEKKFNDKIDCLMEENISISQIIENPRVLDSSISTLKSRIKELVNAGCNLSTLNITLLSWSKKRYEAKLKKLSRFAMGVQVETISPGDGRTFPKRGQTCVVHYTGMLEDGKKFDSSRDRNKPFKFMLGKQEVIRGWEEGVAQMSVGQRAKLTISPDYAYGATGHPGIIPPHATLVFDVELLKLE
T1 sequence (P42345+Q04206 fused P42345:T2098L): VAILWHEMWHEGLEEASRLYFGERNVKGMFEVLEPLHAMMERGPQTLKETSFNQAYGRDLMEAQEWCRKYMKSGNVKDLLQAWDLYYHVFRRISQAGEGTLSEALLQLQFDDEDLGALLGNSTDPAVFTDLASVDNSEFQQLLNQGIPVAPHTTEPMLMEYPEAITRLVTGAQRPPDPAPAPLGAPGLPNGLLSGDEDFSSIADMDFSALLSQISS

On to `CO[C@H]1C[C@@H]2CC[C@@H](C)[C@@](O)(O2)C(=O)C(=O)N2CCCC[C@H]2C(=O)O[C@H]([C@H](C)C[C@@H]2CC[C@@H](O)[C@H](OC)C2)CC(=O)[C@H](C)/C=C(\C)[C@@H](O)[C@@H](OC)C(=O)[C@H](C)C[C@H](C)/C=C/C=C/C=C/1C` [rapamycin], for which, in data set [1], the physiological blood concentrations is ~ 22 nM.

On to “C16-(S)-7-methylindolerapamycin [A/C heterodimerizer]”, for which the “mCerulean levels versus inducer concentration” value in data set [2] (HEK cells co-transfected with MTERF158-399::FKBP and FRB fusions to the strongest TADs, FIG. 10C) is listed as “increased dose-dependently”. Further, the concentration for a half-maximal effect (EC50) in data set [2] (cMyc NLS linking MTERF158-399 and FKBP, AP6 linker linking FRB and RelA430-551, FIG. 10D) is approximately 60 nM; in data set [3], approximately 1 nM.

B1: 5xRE, 0 bp spacing (dsDNA)
DNA 1: TAAGATGGCAGAGCCCGGTAATTAAGATGGCAGAGCCCGGTAATTAAGATGGCAGAGCCCGGTAATTAAGATGGCAGAGCCCGGTAATTAAGATGGCAGAGCCCGGTAAT
DNA 2: ATTACCGGGCTCTGCCATCTTAATTACCGGGCTCTGCCATCTTAATTACCGGGCTCTGCCATCTTAATTACCGGGCTCTGCCATCTTAATTACCGGGCTCTGCCATCTTA
For B1, the binding signal is 3.7 fold vs MTF in [4]; approximately 2 fold vs MTF with MTERF1 58-399::2xFoxoTAD; 201 fold vs one TA1 copy with MTERF1 58-399::2xTA1; 11.3 fold lower than MTF with MTERF1 58-399::LMSTEN; 8.4 fold lower than MTF with MTERF1 58-399::FoxoTAD.

B2: MTF: fusion of human MTERF1 amino acids 58-399 to RELA amino acids 430-551; prototype HumTAP synthetic transcription factor (protein)
chain: MFGVKCHNTDSEPLKNEDLLKNLLTMGVDIDMARKRQPGVFHRMITNEQDLKMFLLSKGASKEVIASIISRYPRAITRTPENLSKRWDLWRKIVTSDLEIVNILERSPESFFRSNNNLNLENNIKFLYSVGLTRKCLCRLLTNAPRTFSNSLDLNKQMVEFLQAAGLSLGHNDPADFVRKIIFKNPFILIQSTKRVKANIEFLRSTFNLNSEELLVLICGPGAEILDLSNDYARRSYANIKEKLFSLGCTEEEVQKFVLSYPDVIFLAEKKFNDKIDCLMEENISISQIIENPRVLDSSISTLKSRIKELVNAGCNLSTLNITLLSWSKKRYEAKLKKLSRFAQAGEGTLSEALLQLQFDDEDLGALLGNSTDPAVFTDLASVDNSEFQQLLNQGIPVAPHTTEPMLMEYPEAITRLVTGAQRPPDPAPAPLGAPGLPNGLLSGDEDFSSIADMDFSALLSQISS
As for B2, the “Gol fluorescence levels with or without concomitant WT MTERF1 expression” value in data set [5] is on record as “no difference in Gol fluorescence levels”. In data set [6], the “DE genes, Regulation Up (up-regulated gene, Symbol)” value was “Novel Transcript; also recorded: USP17L2; also recorded: HSPA7; also recorded: ADGRA1”.

B3: sense-5-8-10 promoter (dsDNA)
DNA 1: TAAGATGGCAGAGCCCGGTAATAGAGTGCGTAAGATGGCAGAGCCCGGTAATAGAGTGCGTAAGATGGCAGAGCCCGGTAATAGAGTGCGTAAGATGGCAGAGCCCGGTAATAGAGTGCGTAAGATGGCAGAGCCCGGTAATGACTCATATGCTCTAGAGGGTATATAATGGGGGCC
DNA 2: GGCCCCCATTATATACCCTCTAGAGCATATGAGTCATTACCGGGCTCTGCCATCTTACGCACTCTATTACCGGGCTCTGCCATCTTACGCACTCTATTACCGGGCTCTGCCATCTTACGCACTCTATTACCGGGCTCTGCCATCTTACGCACTCTATTACCGGGCTCTGCCATCTTA
The molecule B3 yielded a binding signal in data set [7] of 2 fold vs sense-5-9-8.

B4: WT MTERF1: human MTERF1, Uniprot Q99551, including the mitochondrial transfer peptide (protein, listed as Homo sapiens)
chain: MQSLSLGQTSISKGLNYLTIMAPGNLWHMRNNFLFGSRCWMTRFSAENIFKSVSFRLFGVKCHNTDSEPLKNEDLLKNLLTMGVDIDMARKRQPGVFHRMITNEQDLKMFLLSKGASKEVIASIISRYPRAITRTPENLSKRWDLWRKIVTSDLEIVNILERSPESFFRSNNNLNLENNIKFLYSVGLTRKCLCRLLTNAPRTFSNSLDLNKQMVEFLQAAGLSLGHNDPADFVRKIIFKNPFILIQSTKRVKANIEFLRSTFNLNSEELLVLICGPGAEILDLSNDYARRSYANIKEKLFSLGCTEEEVQKFVLSYPDVIFLAEKKFNDKIDCLMEENISISQIIENPRVLDSSISTLKSRIKELVNAGCNLSTLNITLLSWSKKRYEAKLKKLSRFA
In the case of B4, the “DE genes, Regulation Up (up-regulated gene, Symbol)” value in data set [6] was “GDF15; also recorded: TRPV6; also recorded: HSPA7”.
